Source: patent publication US20230119254A1, “SYNERGISTIC AND TARGETING COMPOSITIONS FOR TREATMENT OF ARTERIAL AND VENOUS THROMBOSIS” (AstraZeneca AB, priority 2020, published 2023)
Entries after “also recorded” stand apart in the source; their conditions may differ. Like-named read-outs stand apart in the source and are kept apart here.

What was measured:
arterial thrombosis = experiment: Electrical injury model (EIM) of arterial thrombosis in rabbits; type: in vivo, rabbit
Method: Rabbits were randomized into the following eleven groups with the treatments initiated 30 min before electrical injury.
Electrical injury generated occlusion in 60% of the rabbits treated with saline within 2 h. Average thrombosis weight was 7.8 mg.

[1] = system: thrombin generation in human platelet rich plasma; experiment: Thrombin generation by calibrated automated thrombography (CAT) in ADP-activated human PRP; type: cell-based; details: for peak thrombin concentration / time to peak thrombin: 20 uM ADP-activated human platelets, equal molar concentrations
Method: Shown are thrombograms of nanomolar thrombin that were generated in human platelet rich plasma activated with […].
Thrombin generation in citrated human platelet rich plasma (PRP) was quantified by calibrated automated thrombography (CAT) using the Thrombinoscope system (Synapse), according to methods developed by Hemker et al. Aliquots of PRP were incubated with agents for 15 min at room temperature, and then for 5 min at 37° C. in wells of 96-well plates. Thrombin generation was initiated by addition of 0.5 pM tissue factor and CaCl2 to 16.7 mM and monitored in a microtiter plate fluorometer (Fluoroskan Ascent, Thermo Electron Corp., Vantaa, Finland). Thrombograms (nM thrombin generated vs. time) were generated using the Thrombinoscope software, as were key thrombin generation parameters: lag time to onset of thrombin generation (min), peak thrombin concentration (nM), time to peak thrombin (min), and endogenous thrombin potential (ETP; integrated area under the thrombogram curve).
The effects of APT102, annexin V, APT102+annexin V, and APT402 at equal molar concentrations on thrombin generation from 20 uM ADP-activated human platelets were compared using CAT assays (FIG. 3). […] These features were mimicked by APT402.

[2] = comparison value for annexin V; cited from earlier work
[3] = Malachite green assay of enzymatic kinetic parameters; type: biochemical
[4] = system: human platelet-rich plasma (PRP); experiment: ADP-induced human platelet aggregation in platelet-rich plasma; type: cell-based; details: ADP-activated, light transmission, 6 min
Method: FIGS. 1A and 1B show the effect of apyrase APT102 used as such and of a fusion protein thereof, APT402, on platelet aggregation in an ex vivo reaction mixture comprising human platelet-rich plasma (PRP) activated with 20 μM ADP. […] X axis is the assay time (6 min duration), Y axis is the light transmission. […] Arrows indicate addition of ADP and apyrases.
The inhibitory activity on FX activation was assayed using peripheral blood mononuclear cells (PBMC) purified from normal human donors and anesthetized rabbits by standard methods. […] As expected, APT102 had no effect on PBMC pro-coagulant activity.

platelet aggregation = experiment: Ex vivo ADP-induced platelet aggregation after single IV bolus in rabbits; details: rabbit, 0.40 mg/kg IV bolus
[5] = system: rabbit platelet rich plasma; experiment: ADP-induced platelet aggregation in rabbit PRP during and after bolus plus infusion; type: in vivo; details: for ADP-induced (50 uM) platelet aggregation in rabbit PRP: 0.2 mg/kg bolus then 24 μg/kg/min for 120 min
thrombin generation = experiment: Thrombin generation during and after bolus plus infusion in rabbits; type: in vivo, rabbit; details: for thrombin generation: 0.2 mg/kg bolus then 24 μg/kg/min for 120 min
[6] = Haemostasis parameters in healthy rabbits with bolus plus infusion; type: in vivo, rabbit
IVC thrombosis = type: in vivo, mice; details: for reduction of thrombus weight: mice
Method: An electrical injury model of venous thrombosis was used for acute study (Diaz J A et al. Thromb Haemost. 104: 366-375, 2010.
Mice were randomized into the following four groups (n=10/group).
The EIM consistently generated IVC thrombosis in all mice with the mean thrombus weight of 22.5 mg. Thrombus weight, BT, APTT and TCT were measured 48 h post DVT induction.

[7] = system: IVC fibrosis (collagen deposition); experiment: Chronic murine electrolytic injury model (EIM) of DVT, fibrosis; type: in vivo; details: mice, 1.0 mg/kg ip bolus daily for 14 days
From the text: In a chronic fibrotic study, mice were randomized and blinded into the following groups (n=5-12/group).
Collagen deposition was stained with Masson's trichrome 14 days post DVT induction.

[8] = rabbit, in vivo, iv, 0.4 mg/kg
[9] = rabbit, in vivo, iv, 0.2 mg/kg
[10] = system: thrombotic sites of injured arteries; details: rabbit, in vivo
Method: A. APT402 was conjugated to the fluorescent dye (LS288); B. Fluorescent intensity in the injured artery of the rabbit treated with APT402 at 0.2 mg/kg bolus followed by 12 mg/kg/min for 120 min. Each bar represents the mean of 3 readings. C.
A near infra-red (NIR) fluorescent dye (LS288, Ex/Em 773/793) in methanol was conjugated to the functional amines of APT402 (˜1:1). […] For in vivo imaging of the thrombus by fluorescent molecular tomography (FMT), a custom built, fiber-based, portable, video-rate system was used as described (CITE).

[11] = PK (ELISA) with bolus plus continuous IV infusion in rabbits; details: rabbit, bolus plus 120 min infusion; significantly decreased 60 min after discontinuation
[12] = Pharmacokinetics (ADPase activity) after single IV bolus in rabbits
[13] = rabbit EIM, group doses of the 2nd table
[14] = rabbit, bolus plus 120 min infusion, significantly decreased 60 min after discontinuation

## CC[C@H](C)[C@H](NC(=O)[C@H](CCC(=O)O)NC(=O)[C@H](CCC(=O)O)NC(=O)[C@H](Cc1ccccc1)NC(=O)[C@H](CC(=O)O)NC(=O)CNC(=O)[C@H](CC(N)=O)NC(=O)CNC(=O)CNC(=O)CNC(=O)CNC(=O)[C@@H]1CCCN1C(=O)[C@H](CCCNC(=N)N)NC(=O)[C@@H]1CCCN1C(=O)[C@H](N)Cc1ccccc1)C(=O)N1CCC[C@H]1C(=O)N[C@@H](CCC(=O)O)C(=O)N[C@@H](CCC(=O)O)C(=O)N[C@@H](Cc1ccc(O)cc1)C(=O)N[C@@H](CC(C)C)C(=O)O [bivalirudin, Bivalirudin, reference compound]
Arterial thrombosis; [13]
  partial thromboplastin time: increased
  prothrombin time: increased
Arterial thrombosis; rabbit EIM, group doses of the 2nd table, BT measurement ceiling 5 min
  bleeding time (BT): prolonged

## annexin V: protein that binds phosphatidyl serine on activated platelets in competition with prothrombinase complex
[1]
  peak thrombin concentration: modestly decreasing
  time to peak thrombin: significantly increased
[2]
  distribution half-life: 5 min
  elimination half-life: 20 min

## CCCSc1nc(N[C@@H]2C[C@H]2c2ccc(F)c(F)c2)c2nnn([C@@H]3C[C@H](OCCO)[C@@H](O)[C@H]3O)c2n1 [ticagrelor, reference compound]
Arterial thrombosis; rabbit EIM, ticagrelor 10 mg/kg oral, bivalirudin 5 mg/kg IV bolus then 5 mg/kg/h
  occlusion within 2 h: completely prevented occlusion
Arterial thrombosis; rabbit, in vivo
  bleeding time (BT): prolonged
  partial thromboplastin time: increased

## COC(=O)[C@H](c1ccccc1Cl)N1CCc2sccc2C1 [clopidogrel, Clopidogrel, reference compound]
Arterial thrombosis; rabbit, in vivo
  bleeding time (BT): prolonged

B1: APT402: fusion protein of apyrase APT102, 20 amino acid linker and annexin V (SEQ ID NO: 7-10) (protein)
chain: MMSFVSLLLVGILFHATQADAPEVLPPGLKYGIVLDAGSSGTRVYVYQWPAEKENNTGVVSQTFKCSVKGSGISSYGNNPQDVPRAFEECMQKVKGQVPSHLHGSTPIHLGATAGMRLLRLQNETAANEVLESIQSYFKSQPFDFRGAQIISGQEEGVYGWITANYLMGNFLEKNLWHMWVHPHGVETTGALDLGGASTQISFVAGEKMDLNTSDIMQVSLYGYVYTLYTHSFQCYGRNEAEKKFLAMLLQNSPTKNHLTNPCYPRDYSISFTMGHVFDSLCTVDQRPESYNPNDVITFEGTGDPSLCKEKVASIFDFKACHDQETCSFDGVYQPKIKGPFVAFAGFYYTASALNLSGSFSLDTFNSSTWNFCSQNWSQLPLLLPKFDEVYARSYCFSANYIYHLFVNGYKFTEETWPQIHFEKEVGNSSIAWSLGYMLSLTNQIPAESPLIRLPIEPPVGSTSGGSTSGGSTSGSGATIAQVLRGTVTDFPGFDERADAETLRKAMKGLGTDEESILTLLTSRSNAQRQEISAAFKTLFGRDLLDDLKSELTGKFEKLIVALMKPSRLYDAYELKHALKGAGTNEKVLTEIIASRTPEELRAIKQVYEEEYGSSLEDDVVGDTSGYYQRMLVVLLQANRDPDAGIDEAQVEQDAQALFQAGELKWGTDEEKFITIFGTRSVSHLRKVFDKYMTISGFQIEETIDRETSGNLEQLLLAVVKSIRSIPAYLAETLYYAMKGAGTDDHTLIRVMVSRSEIDLFNIRKEFRKNFATSLYSMIKGDTSGDYKKALLLLCGEDD
modifications: CDS (1)..(2397)
[3]
  enzymatic kinetic parameters for ATP and ADP: comparable to those of APT102
[4]
  inhibition of ADP-induced human platelet aggregation: dose-dependently inhibits; also recorded: comparable potency to APT102
[1]
  peak thrombin concentration: mimicked
  time to peak thrombin: mimicked
[1]; ADP-activated human PRP
  inhibition of thrombin generation: comparable inhibitory effects
Platelet aggregation; 1 h after dosing
  inhibition of 20 μM ADP-induced ex vivo platelet aggregation: 90%
Platelet aggregation; 6 h after dosing
  inhibition of 20 μM ADP-induced ex vivo platelet aggregation: 80%
Platelet aggregation; by 10 min after dosing
  inhibition of 20 μM ADP-induced ex vivo platelet aggregation: 95%
[5]; at 60 and 110 min
  ADP-induced (50 uM) platelet aggregation in rabbit PRP: effectively inhibited
[5]; at 180 min
  ADP-induced (50 uM) platelet aggregation in rabbit PRP: returned to the baseline level
[5]; [14]
  inhibition of ADP-induced platelet aggregation over time: maintained up to 120 min during infusion
Thrombin generation; at 60 and 110 min
  thrombin generation: effectively attenuated
Thrombin generation; at 180 min
  thrombin generation: returned to the baseline level
Thrombin generation; [14]
  inhibition of thrombin generation over time: maintained up to 120 min during infusion
[6]
  ACT vs control animals: no differences
  PT vs control animals: no differences
  aPTT vs control animals: no differences
  bleeding time vs control animals: no differences
  platelet counts vs control animals: no differences
Arterial thrombosis; rabbit EIM, 24 ug/kg/min
  thrombus weight compared with any other treatments: lowest thrombus weight
Arterial thrombosis; rabbit EIM, 0.2 mg/kg IV bolus then 12 ug/kg/min
  occlusion within 2 h: completely prevented occlusion
Arterial thrombosis; rabbit EIM, 0.2 mg/kg IV bolus then 24 ug/kg/min
  occlusion within 2 h: completely prevented occlusion
Arterial thrombosis; rabbit EIM, infusion 4, 12, 24 μg/kg/min
  thrombosis weight: dose-dependently reduced
Arterial thrombosis; rabbit, in vivo
  bleeding time (BT): did not affect
  blood pressure (mean arterial pressure): did not affect
  heart rate: did not affect
  partial thromboplastin time: did not affect
  prothrombin time: did not affect
IVC thrombosis; 1.0 mg/kg ip bolus daily for 2 days
  reduction of thrombus weight: 53%
IVC thrombosis; high dose: 0.2 mg/kg ip bolus then 0.09 mg/kg/h sc for 48 h
  reduction of thrombus weight: 65%
IVC thrombosis; low dose: 0.2 mg/kg ip bolus then 0.03 mg/kg/h sc for 48 h
  reduction of thrombus weight: 44%
IVC thrombosis; mouse, in vivo
  prolongation of BT: did not cause detectable prolongation
  prolongation of TCT: did not cause detectable prolongation
  prolongation of aPTT: did not cause detectable prolongation
IVC thrombosis; mouse, in vivo, ip, 1 mg/kg
  bleeding time: without increasing bleeding time
[7]
  deaths, increased bleeding or gross side effects: no deaths or increased bleeding or gross side effects
[7]; Masson's trichrome 14 days post DVT induction
  reduction of collagen deposition: 33%
[8]
  elimination half-life (t1/2): 360 min
[9]
  time by which detectable in the plasma after administration (ELISA): ≤ 30 min
[10]
  binding to thrombus: bound to thrombus
  signal in the non-injured control carotid: no increased signal
[11]
  APT402 plasma concentration over time: maintained up to 120 min during infusion
[12]; 6 h vs 20 min
  extension of elimination half-life compared to annexin V: 18 fold
[12]; rabbit, 0.40 mg/kg IV bolus
  distribution phase half-life: 30 min
[12]; rabbit, 0.40 mg/kg IV bolus, ADPase activity
  time of maximal activity in the plasma after administration: 30 min
